Laboratory results: the RNAGym collection of RNA variant scans (doi:10.7554/elife.80360)

B1: CPEB3 Ribozyme (parent)
chain: GGGGGCCACAGCAGAAGCGUUCACGUCGCGGCCCCUGUCAGAUUCUGGUGAAUCUGCGAAUUCUGCUGU

Variants of: B1
Experiment: self-cleavage, relative activity (ratio to wild type); higher = more cleavage; co-transcriptional

Q: With G5U U62G as the variant, how does the self-cleavage read?
A: 0.103

Q: For G5U U67A, which self-cleavage is on record?
A: 0.743

Q: Which self-cleavage does the source give for G5U U67C here?
A: 0.628

Q: With G5U U69A as the variant, how does the self-cleavage read?
A: 0.503

Q: Which self-cleavage does the source give for G5U U69C here?
A: 0.749

Q: With C6A A8G as the variant, how does the self-cleavage read?
A: 0.53

Q: Which self-cleavage does the source give for C6A A13C here?
A: 0.262

Q: For C6A A13U, which self-cleavage is on record?
A: 0.346

Q: With C6A A15G as the variant, how does the self-cleavage read?
A: 0.467

Q: For C6A A15U, which self-cleavage is on record?
A: 0.176

Q: With C6A A42U as the variant, how does the self-cleavage read?
A: 0.374

Q: Which self-cleavage does the source give for C6A A52C here?
A: 0.519

Q: With C6A A59C as the variant, how does the self-cleavage read?
A: 0.221

Q: With C6A A59U as the variant, how does the self-cleavage read?
A: 0.202

Q: For C6A C7G, which self-cleavage is on record?
A: 0.0736

Q: Which self-cleavage does the source give for C6A C7U here?
A: 0.115

Q: Which self-cleavage does the source give for C6A C9U here?
A: 0.94

Q: With C6A C12U as the variant, how does the self-cleavage read?
A: 0.581

Q: For C6A C22G, which self-cleavage is on record?
A: 0.155

Q: Which self-cleavage does the source give for C6A C24U here?
A: 0.195

Q: For C6A C29G, which self-cleavage is on record?
A: 0.179

Q: With C6A C33A as the variant, how does the self-cleavage read?
A: 0.127

Q: Which self-cleavage does the source give for C6A C34A here?
A: 0.153

Q: For C6A C34G, which self-cleavage is on record?
A: 0.144

Q: For C6A C35G, which self-cleavage is on record?
A: 0.134

Q: With C6A C35U as the variant, how does the self-cleavage read?
A: 0.27

Q: Which self-cleavage does the source give for C6A C39G here?
A: 0.372

Q: Which self-cleavage does the source give for C6A C45A here?
A: 0.523

Q: Which self-cleavage does the source give for C6A C54A here?
A: 0.282

Q: With C6A C54G as the variant, how does the self-cleavage read?
A: 0.246

Q: With C6A C63G as the variant, how does the self-cleavage read?
A: 0.205

Q: For C6A C63U, which self-cleavage is on record?
A: 0.505

Q: For C6A G11C, which self-cleavage is on record?
A: 0.29

Q: With C6A G17A as the variant, how does the self-cleavage read?
A: 0.131

Q: For C6A G19U, which self-cleavage is on record?
A: 0.131

Q: Which self-cleavage does the source give for C6A G30C here?
A: 0.209

Q: Which self-cleavage does the source give for C6A G41C here?
A: 0.192

Q: With C6A G41U as the variant, how does the self-cleavage read?
A: 0.225

Q: With C6A G48A as the variant, how does the self-cleavage read?
A: 0.712

Q: With C6A G48U as the variant, how does the self-cleavage read?
A: 0.776

Q: Which self-cleavage does the source give for C6A G50A here?
A: 0.708

Q: Which self-cleavage does the source give for C6A G56A here?
A: 0.423

Q: For C6A G56U, which self-cleavage is on record?
A: 0.44

Q: With C6A G58C as the variant, how does the self-cleavage read?
A: 0.567

Q: For C6A U20G, which self-cleavage is on record?
A: 0.161

Q: Which self-cleavage does the source give for C6A U26C here?
A: 0.333

Q: For C6A U36A, which self-cleavage is on record?
A: 0.128

Q: With C6A U36G as the variant, how does the self-cleavage read?
A: 0.138

Q: Which self-cleavage does the source give for C6A U38A here?
A: 0.3

Q: Which self-cleavage does the source give for C6A U43A here?
A: 0.294

Q: For C6A U43C, which self-cleavage is on record?
A: 0.412

Q: With C6A U49A as the variant, how does the self-cleavage read?
A: 0.641

Q: With C6A U55A as the variant, how does the self-cleavage read?
A: 0.396

Q: Which self-cleavage does the source give for C6A U55G here?
A: 0.2

Q: With C6A U61A as the variant, how does the self-cleavage read?
A: 0.217

Q: Which self-cleavage does the source give for C6A U62A here?
A: 0.175

Q: Which self-cleavage does the source give for C6A U62G here?
A: 0.211

Q: Which self-cleavage does the source give for C6A U64C here?
A: 0.304

Q: For C6A U67G, which self-cleavage is on record?
A: 0.835

Q: For C6G A8G, which self-cleavage is on record?
A: 0.358

Q: For C6G A10C, which self-cleavage is on record?
A: 0.284

Q: For C6G A13C, which self-cleavage is on record?
A: 0.163

Q: Which self-cleavage does the source give for C6G A13U here?
A: 0.123

Q: Which self-cleavage does the source give for C6G A15G here?
A: 0.212

Q: Which self-cleavage does the source give for C6G A15U here?
A: 0.128

Q: With C6G A16G as the variant, how does the self-cleavage read?
A: 0.127

Q: For C6G A23G, which self-cleavage is on record?
A: 0.164

Q: With C6G A23U as the variant, how does the self-cleavage read?
A: 0.526

Q: With C6G A42G as the variant, how does the self-cleavage read?
A: 0.324

Q: Which self-cleavage does the source give for C6G A51C here?
A: 0.154

Q: With C6G A51G as the variant, how does the self-cleavage read?
A: 0.356

Q: For C6G A52U, which self-cleavage is on record?
A: 0.254

Q: For C6G A59U, which self-cleavage is on record?
A: 0.152

Q: For C6G A60C, which self-cleavage is on record?
A: 0.0823

Q: With C6G C7A as the variant, how does the self-cleavage read?
A: 0.0493

Q: Which self-cleavage does the source give for C6G C7G here?
A: 0.0901

Q: Which self-cleavage does the source give for C6G C9U here?
A: 0.489

Q: For C6G C12A, which self-cleavage is on record?
A: 0.102

Q: For C6G C12G, which self-cleavage is on record?
A: 0.253

Q: Which self-cleavage does the source give for C6G C12U here?
A: 0.271

Q: For C6G C22A, which self-cleavage is on record?
A: 0.0965

Q: With C6G C22G as the variant, how does the self-cleavage read?
A: 0.0649

Q: With C6G C22U as the variant, how does the self-cleavage read?
A: 0.106

Q: With C6G C29A as the variant, how does the self-cleavage read?
A: 0.0897
